Assay results as given in patent publication US7374923B2, “Polypeptide” (Astellas Pharma Inc., priority 2002, dated 2008).

B1: MD8S protein: extracellular region of human MD8 protein, 1st to 646th amino acids of SEQ ID NO: 2, with C-terminal FLAG tag (protein, listed as Homo sapiens)
chain: MRGLGLWLLGAMMLPAIAPSRPWALMEQYEVVLPRRLPGPRVRRALPSHLGLHPERVSYVLGATGHNFTLHLRKNRDLLGSGYTETYTAANGSEVTEQPRGQDHCFYQGHVEGYPDSAASLSTCAGLRGFFQVGSDLHLIEPLDEGGEGGRHAVYQAEHLLQTAGTCGVSDDSLGSLLGPRTAAVFRPRPGDSLPSRETRYVELYVVVDNAEFQMLGSEAAVRHRVLEVVNHVDKLYQKLNFRVVLVGLEIWNSQDRFHVSPDPSVTLENLLTWQARQRTRRHLHDNVQLITGVDFTGTTVGFARVSAMCSHSSGAVNQDHSKNPVGVACTMAHEMGHNLGMDHDENVQGCRCQERFEAGRCIMAGSIGSSFPRMFSDCSQAYLESFLERPQSVCLANAPDLSHLVGGPVCGNLFVERGEQCDCGPPEDCRNRCCNSTTCQLAEGAQCAHGTCCQECKVKPAGELCRPKKDMCDLEEFCDGRHPECPEDAFQENGTPCSGGYCYNGACPTLAQQCQAFWGPGGQAAEESCFSYDILPGCKASRYRADMCGVLQCKGGQQPLGRAICIVDVCHALTTEDGTAYEPVPEGTRCGPEKVCWKGRCQDLHVYRSSNCSAQCHNHGVCNHKQECHCHAGWAPPHCAKLLTE
modifications: C-terminal FLAG tag

Legend:
MD8S protein = assay: Inhibition of digestion of recombinant IGFBP-5 by MD8S protein (western blotting); format: biochemical, human
Protocol: The MD8S enzyme solution obtained in Example 8(1) was reacted with recombinant IGFBP-5 obtained in Example 9(1) in a 50 mmol/L tris-HCl (pH7.4) buffer containing 50 mmol/L NaCl, 2 mmol/L CaCl2, 20 μg/mL bovine serum albumin (BSA), and 0.1% CHAPS at 37° C. overnight. In this connection, concentrations of the MD8S protein and recombinant IGFBP-5 in the reaction solution were 1.5 μg/mL and 10 μg/mL, respectively.
Using an aliquot of the reaction solution, SDS-PAGE was carried out, and then a transfer to a PVDF membrane and blocking was carried out. Recombinant IGFBP-5 was detected by reacting a biotinylated M2 antibody (Sigma) as the first antibody, followed by a horseradish peroxidase-labeled streptavidin (Amersham) as the second antibody, and by using an ECL Western Blotting Detecting System (Amersham Pharmacia).
Substances inhibiting the activity of digesting IGFBP-5 by the MD8S protein can be screened by the reaction system utilizing western blotting performed in Example 9(2). In this Example, the procedure described in Example 9(2) was repeated, except that various compounds having a hydroxamic acid scaffold as a compound to be tested were added to the reaction system containing the MD8S enzyme solution and recombinant IGFBP-5, to measure an inhibitory intensity of the activity of digesting IGFBP-5. […]

IGFBP-5 = assay: Activity of digesting IGFBP-5 by MD8S protein; format: biochemical, human; settings: MD8S 1.5 μg/mL, 37° C. overnight
Protocol: (§1) The MD8S enzyme solution obtained in Example 8(1) was reacted with commercially available IGFBP-3 or IGFBP-5 (upstate biotechnology) in a 50 mmol/L tris-HCl(pH7.4) buffer containing 50 mmol/L NaCl, 2 mmol/L CaCl2, 20 μg/mL bovine serum albumin (BSA), and 0.1% CHAPS at 37° C. overnight. In this connection, concentrations of the MD8S protein and IGFBP-3 (or IGFBP-5) in the reaction solution were 1.5 μg/mL and 10 μg/mL, respectively.
(§2) Using an aliquot of the reaction solution, sodium dodecyl sulfate polyacrylamide gel electrophoresis (SDS-PAGE) was carried out, and then a transfer to a PVDF membrane and blocking was carried out. IGFBP-3 was detected using an anti-IGFBP-3 polyclonal antibody (R&D System) as the first antibody and a peroxidase-labeled rabbit anti-goat IgG polyclonal antibody (ZYMED) as the second antibody. IGFBP-5 was detected using an anti-IGFBP-5 polyclonal antibody (upstate biotechnology) as the first antibody and a peroxidase-labeled goat anti-rabbit IgG polyclonal antibody (MBL) as the second antibody.
The MD8S enzyme solution obtained in Example 8(1) was reacted with recombinant IGFBP-5 obtained in Example 9(1) in a 50 mmol/L tris-HCl (pH7.4) buffer containing 50 mmol/L NaCl, 2 mmol/L CaCl2, 20 μg/mL bovine serum albumin (BSA), and 0.1% CHAPS at 37° C. overnight. […]

IGFBP-3 = assay: Activity of digesting IGFBP-3 by MD8S protein; format: biochemical; settings: commercial IGFBP-3 10 μg/mL, MD8S 1.5 μg/mL, 37° C. overnight; new band of 25 kDa
Protocol: as §1, §2

Molecule	IC50 (MD8S protein; MD8S 1.5 μg/mL, recombinant IGFBP-5 10 μg/mL, 37° C. overnight, western blot image analysis, read-out: intensity of the inhibition activity (IC50) of the activity of digesting IGFBP-5) [µM]	activity of digesting recombinant IGFBP by the MD8S protein in presence of compound (FIG. 3) (MD8S protein; electrophoresis, compound A 1 nmol/L to 10 μmol/L)	activity of digesting IGFBP-5 (IGFBP-5; commercial IGFBP-5 10 μg/mL, new bands 12 to 25 kDa)	activity of digesting recombinant IGFBP-5 (IGFBP-5; recombinant IGFBP-5-FLAG 10 μg/mL)	activity of digesting IGFBP-3 (IGFBP-3)
CCCOCC(C(=O)NC(Cc1ccc(OC)cc1)C(=O)NC)C(CSC)C(=O)O (stereo not drawn) [compound A, N^α-[(3-carboxy-4-methylthio-2-propoxymethyl)butyryl]-N,O-dimethylthyrosineamide]	3.3	inhibited			
B1			exhibits an activity of digesting IGFBP-3 and IGFBP-5	exhibits an activity of digesting IGFBP-5	exhibits an activity of digesting IGFBP-3
